Experimental data published in publication PMC10251306.

Substrate: O=P(O)(O)OC[C@H]1O[C@H](OP(=O)(O)O)[C@H](O)[C@@H](O)[C@@H]1O
Experiment: phosphatase activity, BioMol Green phosphate assay
Type: biochemical, Homo sapiens
Settings: without IMP, 100 mM Hepes pH 7.2, 2 mM MgCl2, 2 mM β-mercaptoethanol

B1: PMM1 (α-PMM1) (Homo sapiens) (protein)
chain: MAVTAQAARRKERVLCLFDVDGTLTPARQKIDPEVAAFLQKLRSRVQIGVVGGSDYCKIAEQLGDGDEVIEKFDYVFAENGTVQYKHGRLLSKQTIQNHLGEELLQDLINFCLSYMALLRLPKKRGTFIEFRNGMLNISPIGRSCTLEERIEFSELDKKEKIREKFVEALKTEFAGKGLRFSRGGMISFDVFPEGWDKRYCLDSLDQDSFDTIHFFGNETSPGGNDFEIFADPRTVGHSVVSPQDTVQRCREIFFPETAHEA
Km: 18 ± 3.4 µM
kcat: 0.018 ± 0.0012 s⁻¹
kcat/Km: 1000 M⁻¹ s⁻¹
